Reference: paper PMC4778861, “Type One Protein Phosphatase 1 and Its Regulatory Protein Inhibitor 2 Negatively Regulate ABA Signaling” (PLoS Genetics, 2016)

Biological target: T1, MBP-SnRK2.6 (Arabidopsis thaliana, UniProt Q940H6 1-362)
T1 construct: SNF1-related protein kinase 2.6 (SnRK2.6, OST1), Arabidopsis thaliana, in pMal-c2X; source: E. coli BL21 (DE3), purified (amylose resin); not shown: MBP, N-terminal, kept
T1 sequence (looked up): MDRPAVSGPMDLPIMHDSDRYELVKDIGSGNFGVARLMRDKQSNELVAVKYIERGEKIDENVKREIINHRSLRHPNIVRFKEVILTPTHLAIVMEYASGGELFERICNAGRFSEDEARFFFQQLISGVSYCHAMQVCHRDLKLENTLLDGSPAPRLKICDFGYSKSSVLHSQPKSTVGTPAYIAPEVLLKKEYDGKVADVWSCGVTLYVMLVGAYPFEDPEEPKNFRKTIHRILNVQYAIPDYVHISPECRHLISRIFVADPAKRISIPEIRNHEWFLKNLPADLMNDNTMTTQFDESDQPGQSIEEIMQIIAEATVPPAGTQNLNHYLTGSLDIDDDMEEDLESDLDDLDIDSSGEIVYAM
Assay: pull-down; GST-TOPP1 or GST-AtI-2 incubated with MBP-SnRK2.6 in amylose resin, 4 hours at 4°C, washed 4 times with 1X PBS; SDS-PAGE, coomassie blue
Settings: both partners purified

B1: GST-TOPP1 (enzyme, Arabidopsis thaliana, UniProt P30366 1-318, looked up)
chain: MAEKPAQEQEQKRAMEPAVLDDIIRRLVEFRNTRPGSGKQVHLSEGEIRQLCAVSKEIFLQQPNLLELEAPIKICGDIHGQYSDLLRLFEYGGFPPEANYLFLGDYVDRGKQSLETICLLLAYKIKYPENFFLLRGNHESASINRIYGFYDECKRRFNVRLWKIFTDCFNCLPVAALIDDRILCMHGGISPELKSLDQIRNIARPMDIPESGLVCDLLWSDPSGDVGWGMNDRGVSYTFGADKVAEFLEKHDMDLICRAHQVVEDGYEFFAERQLVTVFSAPNYCGEFDNAGAMMSIDESLMCSFQILKPSEKKSPFL
notes: also called GST-tagged TOPP1; source: E. coli, purified (glutathione-agarose beads); not shown: GST, N-terminal, kept
  binding result: binds

B2: GST-AtI-2 (natural protein, Arabidopsis thaliana, UniProt Q9LTK0 1-191, looked up)
chain: MTEPKRGRVQWDEANIVEIESNKPVRQKITEPKTPYHPMMDDDGSLSPRGRAFDECVDDMQRAEELRNVLNDAAASSSRNSSQGSGGGGWSSSDEEEEEADPMDQDEEGSGSGKNERFNAHRKAHYDEFRKVKELRSSGSFYEEEEEEDDGAKGSKSETTTNSRHTKGGNKELDATKTVSGTSSSSSPELI
notes: source: E. coli, purified (glutathione-agarose beads); not shown: GST, N-terminal, kept
  binding result: binds
